Data reported in paper PMC8967979 (Frontiers in Immunology, 2022).

Target: WH01 RBD (residues 333-530) (SARS-CoV-2 Wuhan-Hu-01 (WH01), UniProt P0DTC2)
Experiment: crystal structure
Conditions: both partners purified

B1: Nb22 (VHH)
VHH: QVQLVESGGNLVQPGGSLRLSCAASGGTLASFAVGWFRQAPGKEREGVSCIDVINRANYADSVKGRFTISRDSAKNTVYLQMNSLEPEDTAVYSCAAHFVPPGSRLRGCLVNELYNYWGQGTQVTVSS
  binding result: binds
